{
  "source": "patent US20230391832A1",
  "about": "“CO[…]-BINDING POLYPEPTIDES AND METHODS OF USING THE SAME” (Isolere Bio, Inc., priority 2022, published 2023)",
  "molecules": {"B1": {"name": "PKD2 control protein: N-terminal His-tagged polycystic kidney domain 2 (PKD2 domain) from the AAV receptor, known to bind AAV9 capsids (protein)", "chain": "IAIVSPQFQEISLPTTSTVIDGSQSTDDDKIVQYHWEELKGPLREEKISEDTAILKLSKLVPGNYTFSLTVVDSDGATNSTTANLTVNKA", "modifications": "left off: small tags and cut ends"}},
  "key": {"AAV2 capsids": {"system": "AAV2 capsids", "test": "ELISA cross-reactivity, AAV2 (FIG. 3A)", "type": "binding", "from_the_text": "(§1) The control sequence (i.e. the human polycystic kidney domain 2, which is known to bind to AAV9 capsids) is labeled “C” in each graph.\n(§2) Seven of the variants of Table C were screened for cross-reactivity to AAV2, AAV5, and AAV8."}, "AAV5 capsids": {"system": "AAV5 capsids", "test": "ELISA cross-reactivity, AAV5 (FIG. 3B)", "type": "binding", "from_the_text": "as §1, §2"}, "AAV8 capsids": {"system": "AAV8 capsids", "test": "ELISA cross-reactivity, AAV8 (FIG. 3C)", "type": "binding", "from_the_text": "as §1, §2"}, "AAV9 full capsids": {"system": "AAV9 full capsids", "test": "pH dependence of binding by ELISA (acidic vs neutral elution)", "details": "purified polypeptide 1 μM; citric acid pH 3, 4 or 5 vs TBS pH 7.2; FIG. 4", "protocol": "The pH dependence of binding of the polypeptides of Table C was evaluated by ELISA. Initially, the bacterial lysates of cultures expressing the polypeptides of Table C were incubated in a citric acid solution (pH 4.0) containing AAV9 capsids for 30 minutes. Subsequently, the solution was washed in Tris-Buffered Saline (TBS), which contained 0.05% TWEEN® 20, at neutral pH.\nThe five polypeptides were expressed and purified via a C-terminal 6X-His tag. The purified polypeptides (1 μM) were incubated with an ELISA plate that was coated with AAV9 full capsids. The polypeptides were eluted from the ELISA plate with a citric acid solution at pH 3, 4, or 5 (acidic elution) or in the TBS solution described above at pH 7.2 (neutral elution). The ELISA signal from the protein that was still bound to the AAV9 capsid was measured. The post elution % ligand remaining bound to AAV9 was calculated by dividing the signal after pH 3, 4, or 5 incubation by the signal after pH 7.2 incubation, and multiplying by 100."}, "AAV9 capsids": {"system": "AAV9 capsids", "details": "cited from earlier work"}, "[1]": {"system": "AAV full capsids vs AAV empty capsids", "details": "cited from earlier work"}},
  "data": [
    {"molecule": "B1", "values": [
      {"measurement": "binding / cross-reactivity to AAV2", "setting": "AAV2 capsids", "result": "cross reacted strongly"},
      {"measurement": "binding / cross-reactivity to AAV5", "setting": "AAV5 capsids", "result": "bound poorly or very weakly"},
      {"measurement": "binding / cross-reactivity to AAV8", "setting": "AAV8 capsids", "result": "bound poorly or very weakly"},
      {"measurement": "AAV9 binding signal after acidic elution compared to neutral elution", "setting": "AAV9 full capsids", "result": "reduced AAV9 binding signal"},
      {"measurement": "affinity to AAV9 capsids (known)", "setting": "AAV9 capsids", "result": "known affinity to AAV9 capsids"},
      {"measurement": "discrimination between full and empty capsids (known)", "setting": "[1]", "result": "no discrimination between full and empty capsids"}
    ]}
  ]
}
